From publication PMC2844890

Experiment: infectious virion yield
Settings: glycan lost; control: WT tetherin

B1: tetherin (BST-2): N65,92A (protein)
parent chain: MASTSYDYCRVPMEDGDKRCKLLLGIGILVLLIIVILGVPLIIFTIKANSEACRDGLRAVMECRNVTHLLQQELTEAQKGFQDVEAQAATCNHTVMALMASLDAEKAQGQKKVEELEGEITTLNHKLQDASAEVERLRRENQVLSVRIADKKYYPSSQDSSSAAAPQLLIVLLGLSALLQ
  other: inhibition of virion release: abolishes
